{
  "source": "IntAct's records for PubMed 31663853",
  "parents": {"B1": {"name": "Protein phosphatase 1H (Homo sapiens), Q9ULR3 (parent)", "chain": "MLTRVKSAVANFMGGIMAGSSGSEHGGGSCGGSDLPLRFPYGRPEFLGLSQDEVECSADHIARPILILKETRRLPWATGYAEVINAGKSTHNEDQASCEVLTVKKKAGAVTSTPNRNSSKRRSSLPNGEGLQLKENSESEGVSCHYWSLFDGHAGSGAAVVASRLLQHHITEQLQDIVDILKNSAVLPPTCLGEEPENTPANSRTLTRAASLRGGVGAPGSPSTPPTRFFTEKKIPHECLVIGALESAFKEMDLQIERERSSYNISGGCTALIVICLLGKLYVANAGDSRAIIIRNGEIIPMSSEFTPETERQRLQYLAFMQPHLLGNEFTHLEFPRRVQRKELGKKMLYRDFNMTGWAYKTIEDEDLKFPLIYGEGKKARVMATIGVTRGLGDHDLKVHDSNIYIKPFLSSAPEVRIYDLSKYDHGSDDVLILATDGLWDVLSNEEVAEAITQFLPNCDPDDPHRYTLAAQDLVMRARGVLKDRGWRISNDRLGSGDDISVYVIPLIHGNKLS"}},
  "data": [
    {"variants_of": "B1", "conditions": "with rab10_human RAB10, P61026", "values": [
      {"variant": "MLTRVKSAVANFMGGIMAGSSGSEHGGGSCGGSDLPLRFPYGRPEFLGLSQDEVECSADHIARPILILKETRRLPWATGYAEVINAGKSTHNEDQASCEVLTVKKKAGAVTSTPNRNSSKRRSSLPNGEGLQLKENSESEGVSCHYWSLFDGHAGSGAAVVASRLLQHHITEQLQDIVDILKNSAVLPPTCLGEEPENTPANSRTLTRAASLRGGVGAPGSPSTPPTRFFTEKKIPHECLVIGALESAFKEMDLQIERERSSYNISGGCTALIVICLLGKLYVANAGASRAIIIRNGEIIPMSSEFTPETERQRLQYLAFMQPHLLGNEFTHLEFPRRVQRKELGKKMLYRDFNMTGWAYKTIEDEDLKFPLIYGEGKKARVMATIGVTRGLGDHDLKVHDSNIYIKPFLSSAPEVRIYDLSKYDHGSDDVLILATDGLWDVLSNEEVAEAITQFLPNCDPDDPHRYTLAAQDLVMRARGVLKDRGWRISNDRLGSGDDISVYVIPLIHGNKLS", "note": "[D288A]", "effect of a mutation on the interaction": "causing an interaction"},
      {"variant": "MLTRVKSAVANFMGGIMAGSSGSEHGGGSCGGSDLPLRFPYGRPEFLGLSQDEVECSADHIARPILILKETRRLPWATGYAEVINAGKSTHNEDQASCEVLTVKKKAGAVTSTPNRNSSKRRSSLPNGEGLQLKENSESEGVSCHYWSLFDGHAGSGAAVVASRLLQHHITEQLQDIVDILKNSAVLPPTCLGEEPENTPANSRTLTRAASLRGGVGAPGSPSTPPTRFFTEKKIPHECLVIGALESAFKEMDLQIERERSSYNISGGCTALIVICLLGKLYVANAGESRAIIIRNGEIIPMSSEFTPETERQRLQYLAFMQPHLLGNEFTHLEFPRRVQRKELGKKMLYRDFNMTGWAYKTIEDEDLKFPLIYGEGKKARVMATIGVTRGLGDHDLKVHDSNIYIKPFLSSAPEVRIYDLSKYDHGSDDVLILATDGLWDVLSNEEVAEAITQFLPNCDPDDPHRYTLAAQDLVMRARGVLKDRGWRISNDRLGSGDDISVYVIPLIHGNKLS", "note": "[D288E]", "effect of a mutation on the interaction": "causing an interaction"}
    ]}
  ]
}
